Experiment [1] relates to adult rat trigeminal ganglia neurons. The experiment can be described thus: CGRP release from cultured rat trigeminal ganglia neurons (ELISA). It is filed as cell-based. The method, then: (§1) TG Cultures were prepared from 8-10-week Sprague-Dawley rats. Following cervical dislocation and cardiac cessation, trigeminal ganglia (TG) were dissociated and collected in ice cold HBSS buffer. TGs were digested in 20 U/ml papain for 20 min followed by another 20-min enzymatic digestion in 2% Collagenase Type 4 and Dispase II in 37° C. water bath. Digested TG ganglia were suspended in Leibovitz's L15 medium containing 10% Fetal Bovine Serum, 1% penicillin/streptomycin, 18.5 mM NaHCO3, 38 mM glucose. Cell suspensions were filtered in a 70 μm then a 40 μm cell strainer and were layered onto Leibovitz's L15 medium containing 4% BSA cushion followed by slow speed centrifuge at 100 g, 10 min. Cell pellets were suspended with DMEM medium containing 10% Fetal Bovine Serum and 1% penicillin/streptomycin. Cells were plated onto 96-well plates and cultured for 24 hours at 37° C., 5% CO2. Recombinant rat artemin protein and vehicle control buffer were added into appropriate wells for 24-hour pre-incubation as needed. For experiments testing the effect of an anti-artemin antibody or RET inhibitor, these agents were added to the TG culture simultaneously with artemin for 24 h for CGRP and SP assay or 48 h for PACAP assay. After 24 h or 48 h incubation, cell culture medium was removed and assay buffer containing TRPV1 agonist capsaicin (CAP) or TRPA1 agonist allyl isothiocyanate (AITC) were added into wells and incubated at 37° C., 10 min to trigger neuropeptide release. At the end of stimulation, the supernatant was collected and CGRP and SP content were measured using ELISA assay kits (Bertin Bioreagent). For PACAP assay, cells were cultured and pre-incubated with artemin for 48 hours prior to agonist stimulation to trigger PACAP release. PACAP content in supernatant was measured using an in-house developed ELISA assay.
In general terms: An ELISA detects its analyte on a solid surface through an enzyme-linked reagent.

Experiment [2] shares this test system. Described as above. The note with it: Neuron, 0.5 h. It is filed as cell-based.
For experiment [3], the system named is rat TG neurons. In words: Substance P release from cultured rat trigeminal ganglia neurons (ELISA). It is filed as cell-based. The note with it: artemin pre-incubation. As to the method:
as §1, with “For experiments testing the effect of an anti-artemin antibody or RET inhibitor, these agents were added to the TG culture simultaneously with artemin for 24 h for CGRP and SP assay or 48 h for PACAP assay. After 24 h or 48 h incubation, cell culture medium was removed and assay buffer containing TRPV1 agonist capsaicin (CAP) or TRPA1 agonist allyl isothiocyanate (AITC) were added into wells and incubated at 37° C., 10 min to trigger neuropeptide release.” left out, “For PACAP assay, cells were cultured and pre-incubated with artemin for 48 hours prior to agonist stimulation to trigger PACAP release.” left out

Experiment [4] concerns rat TG neurons. The experiment can be described thus: PACAP release from cultured rat trigeminal ganglia neurons (in-house ELISA). The note with it: artemin treatment for 48 hours. It is filed as cell-based. As to the method:
as §1, with “For experiments testing the effect of an anti-artemin antibody or RET inhibitor, these agents were added to the TG culture simultaneously with artemin for 24 h for CGRP and SP assay or 48 h for PACAP assay. After 24 h or 48 h incubation, cell culture medium was removed and assay buffer containing TRPV1 agonist capsaicin (CAP) or TRPA1 agonist allyl isothiocyanate (AITC) were added into wells and incubated at 37° C., 10 min to trigger neuropeptide release.” left out, “For PACAP assay, cells were cultured and pre-incubated with artemin for 48 hours prior to agonist stimulation to trigger PACAP release.” left out

Experiment [5] concerns rat (preclinical migraine model). The experiment can be described thus: Artemin dural infusion study, periorbital von Frey sensitivity. It is filed as in vivo. As to conditions: local dural infusion daily for five consecutive days, 0.018, 0.18 and 1.8 μg; versus vehicle, first two weeks. The method, then:
Briefly, three different doses of rat artemin protein, inflammatory soup cocktail and vehicle buffer were administered daily via a stainless-steel cannula (22GA, Plastics One) embedded onto dura for 5 consecutive days to produce persistent facial hypersensitivity. Sensory testing occurred during the day using von Frey filaments with reproducible calibrated buckling forces varying from 0.4-10 g utilizing the simplified Chaplan up-and-down method. Allodynia was tested by perpendicularly touching the periorbital region causing slight buckling of the filament for approximately 5 seconds. The periorbital withdrawal threshold (g) was calculated based on the response pattern and the force of the final filament. The periorbital threshold data was recorded on the side of artemin, Inflammatory Soup Cocktail, or vehicle infusion only.

Like-named read-outs stand apart in the source and are kept apart here.

Broadly, the EC50 is the concentration giving half of the maximal effect. Turning to `C=CCN=C=S` [AITC, allyl isothiocyanate, reference compound], the EC50 in experiment [1] (Rattus norvegicus, Neuron, 24 h, read-out: EC50 of AITC for CGRP release) stood at 6940 nM; in experiment [1] (Rattus norvegicus, Neuron, read-out: EC50 of AITC for CGRP release) it was 17800 nM; in experiment [2] (Rattus norvegicus, read-out: EC50 of AITC for CGRP release), 6600 nM.
Consider `COc1cc(CNC(=O)CCCC/C=C/C(C)C)ccc1O` [CAP, capsaicin, reference compound], for which the EC50 is 20.2 nM in experiment [1] (Neuron, CAP+ARTN (24 h), 10 ng/ml rat artemin, read-out: EC50 of CAP for CGRP release); 21.6 nM in experiment [1] (Rattus norvegicus, Neuron, CAP alone, no artemin, read-out: EC50 of CAP for CGRP release); 17.9 nM in experiment [2] (CAP+ARTN (30 min), 10 ng/ml rat artemin, read-out: EC50 of CAP for CGRP release).

B1: artemin: Recombinant rat artemin protein, member of GDNF ligand family (protein)
chain: AGTRSSRARATDARGCRLRSQLVPVSALGLGHSSDELIRFRFCSGSCRRARSPHDLSLASLLDAGALRSPPGSRPISQPCCRPTRYEAVSFMDVNSTWRTVDHLSATACGCLG
In the case of B1, the “EC50 for artemin-potentiation of CGRP release” value in experiment [1] (AITC stimulation, 24 hours of treatment) came out at 0.092 ng/mL; in experiment [1] (CAP stimulation, 24 hours of treatment) it was 0.028 ng/mL. Also, in experiment [1] (AITC stimulation, 24 hours of treatment, read-out: EC50 for artemin-potentiation of CGRP release), the EC50 is 0.0038 nM. Also, in experiment [1] (CAP and AITC fixed at ~EC50, artemin range 0.001 to 100 ng/ml), the “artemin concentration reaching maximal effect on stimulated CGRP release” value was found to be 1 ng/mL. Moreover, in experiment [3], the “effect on CAP- and AITC-stimulated Substance P (SP) release” value is recorded as “dose-dependently increased”. Besides, in experiment [4], the “effect on CAP- and AITC-stimulated PACAP release” value is reported as “potentiated”. Moreover, the “periorbital sensitivity to mechanical stimulation” value in experiment [5] was “significantly increased”.

The values above are taken from patent US20250154236A1, “PREVENTION AND TREATMENT OF HEADACHES” (GlaxoSmithKline Intellectual Property (No. 3) Limited, priority 2022, published 2025).
